The target of this experiment is NMDA receptor NR1-1a subunit, full length (rat). Nature of the experiment: co-IP.

The substance “C-terminal Src kinase (Csk) (from UniProt P41240 1-450) (enzyme)” returned a Csk co-precipitated with NR1 after PP2 (10 μM), percent of that without PP2 of 48%.

The values are drawn from article PMC3032389.
